# From patent US20240101675A1 (BIOLOJIC DESIGN, published 2024)
# Like-named read-outs stand apart in the source and are kept apart here.
# T1: recombinant human OX40 tagged with histidine tag (hOX40-His) (human, UniProt P43489 29-216)
# T1 construct: bought (Reprokine); also called hOX-His; not shown: histidine tag
# T1 sequence (looked up): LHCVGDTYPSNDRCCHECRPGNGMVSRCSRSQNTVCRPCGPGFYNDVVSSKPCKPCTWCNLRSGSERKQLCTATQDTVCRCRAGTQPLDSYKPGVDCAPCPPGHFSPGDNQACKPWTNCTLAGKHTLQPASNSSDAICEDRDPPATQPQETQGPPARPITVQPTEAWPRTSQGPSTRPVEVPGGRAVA
# T2: recombinant human GITR tagged with histidine tag (hGITR-His) (human, UniProt Q9Y5U5 26-161, limits assumed)
# T2 construct: bought (Reprokine); not shown: histidine tag
# T2 sequence (looked up): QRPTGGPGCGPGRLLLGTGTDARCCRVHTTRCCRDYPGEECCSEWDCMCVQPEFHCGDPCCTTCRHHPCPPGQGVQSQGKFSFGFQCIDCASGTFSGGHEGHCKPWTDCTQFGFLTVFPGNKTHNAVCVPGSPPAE
# How the values were obtained:
# [1] = target: T3, human TSLP (human, UniProt Q969D9 29-159); assay: SPR (ProteOn XPR36), IgG captured, hTSLP as analyte 3.2 to 0.2 nM
# T3 construct: also called hTSLP; h-TSLP
# [2] = target: T4, recombinant human IL-13 (human, UniProt P35225 35-146); assay: SPR, IgG captured, hIL-13 as analyte, steady state
# T4 construct: also called rh-IL-13; rhIL-13
# Procedure: Subsequent to a cycle, the analyte and tested antibody were stripped from the chip and new tested Ab was loaded on the chip as described above. KD was determined at a steady state condition.
# [3] = target: T5, recombinant human PD-1 tagged with histidine tag (hPD-1-His) (human, UniProt Q15116 25-167, limits assumed); assay: yeast surface display flow cytometry: scFv on yeast, 111 nM hPD-1-His, anti-His-APC; median RFU
# T5 construct: bought (Reprokine); not shown: histidine tag
# [4] = target: T5, recombinant human PD-1 tagged with …; assay: yeast surface display flow cytometry: scFv on yeast, 30 nM hPD-1-His, anti-His-APC; median RFU
# [5] = target: T1, recombinant human OX40 tagged with …; assay: yeast surface display flow cytometry: scFv on yeast, 90 nM hOX40-His, anti-His-APC; median RFU
# [6] = target: T2, recombinant human GITR tagged with …; assay: direct ELISA, antibody coated, hGITR-His titrated 0 to 865 nM
# Procedure: (§1) IgG binding affinity was examined by ELISA experiments. ELISA plates (Greiner Bio-One-high binding) were coated with 50 ul (100 ng) of the tested antibody and incubated for 1 hour at room temperature. Then plates were washed three times with 300 μl PBS buffer containing 0.05% Tween 20 (PBS-T), blocked with 300μ PBS-T supplemented with 1% to 3% BSA, and incubated for 1 hour at room temperature (RT). Antibodies-coated plates were then washed three times with 300 μl PBS-T and incubated with serial dilutions of test ligand either hPD-1-His, or hOX40-His, or hGITR-His (Reprokine, Israel) in a final volume of 50 ul for 1-3 hours. Plates were then washed three times with 300 μl PBS-T and incubated with 50 μl anti-HIS-HRP conjugate that was diluted 1:300 in PBS (Santa Cruz Biotechnology, USA). After an additional wash step, the reaction was developed with 50 ul tetrametylbenzidine (TMB) reagent (Southern biotech, USA), and stopped with 50 ul 0.5N H₂SO₄. […] The binding affinity was determined by fitting the data to a specific binding non-linear regression model on Prisma 8 GraphPad software.
# ELISA assays were used to analyze the binding affinity of the IgG1 antibodies.
# [7] = target: T5, recombinant human PD-1 tagged with …; assay: direct ELISA: antibody coated on the plate, hPD-1-His titrated, anti-His-HRP
# Procedure: as §1
# [8] = target: T5, recombinant human PD-1 tagged with …; assay: yeast surface display scFv, flow cytometry
# Procedure: (§2) The library was screened on BioRad S3e Fluorescence Activated Cell Sorter (FACS) for high affinity binders of recombinant h-GITR-His, or recombinant h-PD1-His, or recombinant h-OX40-His (Reprokine) using mouse anti Myc-FITC (Santa Cruze, USA) and goat anti-His-APC (Miltenyi Biotec, Germany) for fluorescence labeling. […] The chosen clones were incubated for 1 hour at room temperature with recombinant h-GITR-His, or hPD1-His, or hOX40-His, at the concentrations described in the example section. Cells were washed and resuspended in ice-cold PBS 0.1% BSA buffer containing a fluorescent labeled secondary antibody as described above for 20 min and analyzed using a flow cytometer. The values obtained were normalized to expression levels.
# [9] = target: T2, recombinant human GITR tagged with …; assay: yeast surface display scFv, flow cytometry
# Procedure: as §2
# [10] = target: T6, PD-1 on engineered Jurkat effector cells (PD-1/PD-L1 Blockade Bioassay) (UniProt Q15116 25-288, limits assumed); assay: cell-based or functional assay
# [11] = target: T1, recombinant human OX40 tagged with …; assay: direct ELISA: antibody coated on the plate, hOX40-His titrated, anti-His-HRP
# Procedure: as §1
# [12] = target: T5, recombinant human PD-1 tagged with …; assay: direct ELISA: antibody coated on the plate, hPD-1-His titrated, anti-His-HRP; remark: listed apart in the source
# Procedure: as §1
# [13] = target: T6, PD-1 on engineered Jurkat effector …; assay: cell-based or functional assay; remark: listed apart in the source
# [14] = target: T1, recombinant human OX40 tagged with …; assay: direct ELISA, antibody coated, hOX40-His titrated 0 to 500 nM
# Procedure: as §1
# [15] = target: T2, recombinant human GITR tagged with …; assay: direct ELISA: antibody coated on the plate, hGITR-His titrated, anti-His-HRP
# Procedure: as §1
# [16] = target: T5, recombinant human PD-1 tagged with …; assay: yeast surface display scFv, flow cytometry, 250 nM hPD-1-His
# Procedure: as §2
# T4 sequence (P35225 35-146 limits assumed): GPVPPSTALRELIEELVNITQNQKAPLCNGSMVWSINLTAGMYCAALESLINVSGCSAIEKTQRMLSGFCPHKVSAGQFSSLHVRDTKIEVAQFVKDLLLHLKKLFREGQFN
binder,measurement,setting,value
"BDG33.004 (antibody, human IgG1, V domains shown, human IgG1; also called BGD33.004; Clone C6 as IgG1) VH: QMQLVESGGGVVQPGRSLRLSCAASGFTFRTYGMHWVRQAPGKGLEWVAVIWYDGSNKHYADSVKGRFTITRDNSKNTLNLQMNSLRAEDTAVYYCARAPQWMLVAEAFDLWGQGTMVTVSS VL: SYVLTQPPSVSVAPGQTARITCGGNLIGSKLVHWYQQKPGQAPVLVVYDDSDRPSRIPERFSGSNSGNTATLTISRVEAGDEADYYCQVWDSSSDHVVFGGGTKLTVL",Kd,[1],3.33 nM
same,koff,[1],0.00114 s⁻¹
same,kon,[1],344000 M⁻¹ s⁻¹
same,Kd,[2],57.4 nM
"BDG33.003 (antibody, human IgG1, V domains shown, also called BGD33.003; Clone C2 as IgG1) VH: QMQLVESGGGVVQPGRSLRLSCAASGFTFRTYGMHWVRQAPGKGLEWVAVIWYDGSNKHYADSVKGRFTITRDNSKNTLNLQMNSLRAEDTAVYYCARAPQWELTAEAFDIWGQGTMVTVSS VL: SYVLTQPPSVSVAPGQTARITCGGNLIGSKLVHWYQQKPGQAPVLVVYDDSDRPSLIPERFSGSNSGNTATLTISRVEAGDEADYYCQVWDSSSDGVVFGGGTKLTVL",Kd,[1],4.5 nM
same,koff,[1],0.00129 s⁻¹
same,kon,[1],287000 M⁻¹ s⁻¹
same,Kd,[2],21.6 nM
"G2 (GITR Library) (scFv, V domains shown, also called Clone G2; not shown: linker) VH: QVQLVESGGGVVQPGRSLRLDCKASGITFSNSGMHWVRQAPGKGLEWVAVIWYDGSLRYYADSVKGRFTISRDNSKNTLFLQMNSLRAEDTAVYYCATNDDYWGQGTLVTVSS VL: EIVLTQSPATLSLSPGERATLSCRASQSVSDNLAWYQQKPGQAPRLLIYDADNRATGIPARFSGSGSGTDFTLTISSLEPEDFAVYYCQQSSNLPRTFGQGTKVEIK",binding result,[3],binds
"1B_seq96_13753_B01_4279975 (OX40 Library) (scFv, V domains shown, not shown: linker) VH: QVQLVESGGGVVQPGRSLRLDCKASGITFSNSGMHWVRQAPGKGLEWVAVIWYDGSKRYYADSVKGRFTISRDNSKNTLFLQMNSLRAEDTAVYYCATNDDYWGQGTLVTVSS VL: EIVLTQSPATLSLSPGERATLSCRASQSVIHYLAWYQQKPGQAPRLLIYDASNRATGIPARFSGSGSGTDFTLTISSLEPEDFAVYYCQQYSNWPLTFGQGTKVEIK",binding result,[4],binds
same,binding result,[5],binds
"BDG32.004 (antibody, human IgG1, V domains shown) VH: QVQLVESGGGVVQPGRSLRLDCKASGFTFSNSGMHWVRQAPGKGLEWVAVIWYDGSLRYYADSVKGRFTISRDNSKNTLFLQMNSLRAEDTAVYYCATNDDYWGQGTLVTVSS VL: EIVLTQSPATLSLSPGERATLSCRASQSVSDNLQWYQQKPGQAPRLLIYDADTRATGIPARFSGSGSGTDFTLTISSLEPEDFAVYYCQQSSNLPRTFGQGTKVEIK",EC50,[6],~13 nM
same,EC50 (read off the curve),[7],~2 nM
"G5 (GITR Library) (scFv, V domains shown, not shown: linker) VH: QVQLVESGGGVVHPGRSLRVDCKASGITFSNSGMHWVRQAPGKGLEWVAVIWYDGSLRYYADSVKGRFTISRDNSKNTLFLQMNSLRAEDTAVYYCATNDDYWGQGTLVTVSS VL: EIVLTQSPATLSLSPGERATLSCRASQSVSDNLAWYQQKPGQAPRLLIYDADNRATGIPARFSGSGSGTDFTLTISSLAPEDFAVYYCQQSSNLPRTFGQGTKVEIK",binding result,[8],binds
same,binding result,[9],binds
"BDG32.007 (antibody, human IgG1, V domains shown, human IgG1 format of clone 3212ACOXC5A) VH: QVQLVESGGGVVQPGRSLRLDCKASGITFSNSGMHWVRQAPGKGLEWVAVIWYDGSKTYYADSVKGRFTISRDNSKNTLFLQMNSLRAEDTAVYYCATNDDYWGQGTLVTVSS VL: EIVLTQSPATLSLSPGERATLSCRASQSVEHYLAWYQQKPGQAPRLLIYDAGNRATGIPARFSGSGSGTDFTLTISSLEPEDFAVYYCQQYSDWPLTFGQGTKVEIK","IC50, cellular reporter PD1/PDL1 blocking assay (PD-1 dependent luminescence)",[10],~2.5 nM
same,EC50 (read off the curve),[11],~30 nM
same,EC50 (read off the curve),[12],~0.6 nM
same,"IC50 (read off the curve); PD-1/PD-L1 Blockade Bioassay, luciferase RLU",[13],~2 nM
same,EC50,[14],~26 nM
"BDG32.005 (antibody, human IgG1, V domains shown, human IgG1 format) VH: QVQLVESGGGVVQPGRSLRLDCKASGITFSNSGMHWVRQAPGKGLEWVAVIWYDGSLRYYADSVKGRFTISRDNSKNTLFLQMNSLRAEDTAVYYCATNDDYWGQGTLVTVSS VL: EIVLTQSPATLSLSPGERATLSCRASQSVSDNLAWYQQKPGQAPRLLIYDADNRATGIPARFSGSGSGTDFTLTISSLEPEDFAVYYCMQSSNLARTFGQGTKVEIK",EC50 (read off the curve),[15],~4 nM
same,EC50,[6],~4 nM
same,"IC50, cellular reporter PD1/PDL1 blocking assay (PD-1 dependent luminescence)",[10],~614 nM
same,EC50 (read off the curve),[7],~3 nM
"3212ACOXC61 (OX40 library) (scFv, V domains shown, not shown: linker) VH: QVQLVESGGGVVQPGRSLRLDCKASGIAFSNSGMHWVRQAPGKGLEWVAVIWYDGSKTYYADSVKGRFTISRDNSKNTLFLQMNSLRAEDTAVYYCATNDDYWGQGTLVTVSS VL: EIVLTQSPATLSLSPGERATLSCRASQSVIHYLAWYQQKPGQAPRLLIYDASNRATGIPARFSGSGSGTDFTLTISSLEPEDFAVYYCQQYTNWPLTFGQGTKVEIK",binding result,[4],binds
same,binding result,[5],binds
"G1 (GITR Library) (scFv, V domains shown, not shown: linker) VH: QAQLVESGGGVVQAGRSLRLDCKASGITFSNRGMHWVRQAPGKGLEWVAVIWYDGSLRYYADSVKGRFTISRDNSKNTLFLQMNSLRAEDTAVYYCATNDDYWGQGTLVTVSS VL: EIVLTQSPATLSLSPGERATLSCRASQSVSDNLAWYQQKPGQAPRLLIYDADNRATGIPARFSGSGSGTDFTLTISSLEPEDFAVYYCQQSSNLPRTFGQGTKVEIK",binding result,[9],binds
same,binding result,[16],binds
"BDG32.008 (antibody, human IgG1, V domains shown, human IgG1 format of clone 3212ACOXC7A) VH: QVQLVESGGGVVQPGRSLRLDCKASGIDFSNSGMHWVRQAPGKGLEWVAVIWYDGSLRYYADSVKGRFTISRDNSKNTLFLQMNSLRAEDTAVYYCATNDDYWGQGTLVTVSS VL: EIVLTQSPATLSLSPGERATLSCRASQSVEHYLAWYQQKPGQAPRLLVYDASNRATGIPARFSGSGSGTDFTLTISSLEPEDFAVYYCQQYSNWPLTFGQGTKVEIK",EC50 (read off the curve),[11],~20 nM
same,EC50 (read off the curve),[12],~0.9 nM
same,EC50,[14],~24 nM
"G8 (GITR Library) (scFv, V domains shown, not shown: linker) VH: QVQLVESGGGVVQPGRSLRLDCKASGITFSNSGMHWVRQAPGKGLEWVAVIWYDGSLRYYADSVKGRFTISRDNSKNTLFLQMNSLRAEDTAVYYCASNDDYWGQGTLVTVSS VL: EIVLTQSPATLSLSPGERATLSCRASQSVSDNLAWYQQKPGQAPRLLIYDADNRATGIPARFSGSGSGTDFTLTISSLEPEDFAVYYCQQSSNLPRTFGQGTKVEIK",binding result,[8],binds
same,binding result,[9],binds
"3212ACOXC23 (OX40 library) (scFv, V domains shown, not shown: linker) VH: QVQLVESGGGVVQPGRSLRLDCKASGIDFSNSGMHWVRQAPGKGLEWLAVIWYDGSKRYYADSVKGRFTISRDNSKNTLFLQMNSLRAEDTAVYYCASNDDYWGQGTLVTVSS VL: EIVLTQSPATLSLSPGERATLSCRASQSVIHYLAWYQQKPGQAPRLLIYDASNRATGIPARFSGSGSGTDFTLTISSLEPEDFAVYYCQQYENWPLTFGQGTKVEIK",binding result,[4],binds
same,binding result,[5],binds
